Patent publication US20180002381A1 (HONG KONG POLYTECHNIC UNIVERSITY, published 2018)
No end group written: not given here.

B8: Coiled coil domain of UVRAG (228-276) (other)
chain: TSNELKKESESLRLKILVLRNELERQKKALGREVAFLHKQQMALQDKG
notes: They have S at position 238 where the full-length entries have C; also called UVRAG coiled coil domain; UVRAG coiled coil
B9: Monomeric form of Beclin1 coiled coil domain with L182A mutation (other)
chain: DSEQLQREAKELALEEERLIQELEDVEKNRKVVAENLEKVQAEAERLDQEEAQYQREYSEFKRQQLELDDELKSVENQMRYAQMQLDKLKKTN
notes: The entry already carries L182A
B10: UVRAG (228-298) (other)
chain: TSNELKKESESLRLKILVLRNELERQKKALGREVAFLHKQQMALQDKGSAFSTEHGKLQLQKDSLSELRKE

Tests used:
endogenous Beclin1 = endogenous Beclin1 (UniProt Q14457 1-450); experiment: cell-based or functional assay
endogenous Beclin1, sequence (Q14457 whole entry, the tested form may be a part): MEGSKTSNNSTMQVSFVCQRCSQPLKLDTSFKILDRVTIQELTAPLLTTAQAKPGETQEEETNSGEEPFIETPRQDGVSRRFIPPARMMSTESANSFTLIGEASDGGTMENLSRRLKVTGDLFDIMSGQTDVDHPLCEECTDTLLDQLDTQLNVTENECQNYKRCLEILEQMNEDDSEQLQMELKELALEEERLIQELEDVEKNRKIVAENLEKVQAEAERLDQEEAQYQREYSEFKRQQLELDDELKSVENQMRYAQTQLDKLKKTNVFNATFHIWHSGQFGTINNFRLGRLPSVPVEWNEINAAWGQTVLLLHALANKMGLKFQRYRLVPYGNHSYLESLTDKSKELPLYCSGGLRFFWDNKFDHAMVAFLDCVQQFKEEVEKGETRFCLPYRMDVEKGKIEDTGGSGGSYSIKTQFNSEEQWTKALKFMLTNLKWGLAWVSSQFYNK

[1] = biological target: B8; experiment: isothermal titration calorimetry, Beclin 1 construct against UVRAG coiled coil domain
[2] = biological target: T1, Beclin1 coiled coil domain (wild type) (rat, UniProt Q91XJ1 174-266); experiment: ITC
T1 construct: residues 175-266; it pairs 1:1 with UVRAG; also called CC; entire Beclin1 coiled coil domain

UVRAG (228-298) = biological target: B10; experiment: isothermal titration calorimetry, monomeric Beclin1 coiled coil domain (L182A) and UVRAG (228-298)
[3] = biological target: B9; experiment: ITC
[4] = biological target: T1, Beclin1 coiled coil domain (wild type); experiment: isothermal titration calorimetry, wild type Beclin1 coiled coil domain and UVRAG (228-298)
Target sequence in this assay (Q91XJ1 174-266 limits assumed): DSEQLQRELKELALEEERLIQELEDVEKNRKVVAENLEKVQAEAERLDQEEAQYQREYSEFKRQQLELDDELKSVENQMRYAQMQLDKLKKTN

[5] = biological target: T1, Beclin1 coiled coil domain (wild type); experiment: ITC; remark: listed apart in the source

B1: FLAG-tagged full length Mus musculus UVRAG wild type (other, not shown: small tags and cut ends)
chain: MSSCASLGGPVPLPPPGPSAALTSGAPARALHVELPSQQRRLRHLRNIAARNIVNRNGHQLLDTYFTLHLCDNEKIFKEFYRSEVIKNSLNPTWRSLDFGIMPDRLDTSVSCFVVKIWGGKEEAFQLLIEWKVYLDGLKYLGQQIHARNQNEIIFGLNDGYYGAPCEHKGHPNAQKNLLQVDQNCVRNSYDVFSLLRLHRAQCAIKQTQVTVQRLGKEIEEKLRLTSTSNELKKESECLRLKILVLRNELERQKKALGREVAFLHKQQMALQDKGSAFSTEHGKLQLQKDSLSELRKECTAKRELFLKTNAQLTIRCRQLLSELSYIYPIDLNEHKDYFVCGVKLPNSEDFQAKEDGSIAVALGYTAHLVSMISFFLQVPLRYPIIHKGSRSTIKDNINDKLTEKEREFPLYPKGGEKLQFDYGVYLLNKNIAQLRYQHGLGTPDLRQTLPNLKNFMEHGLMVRCDRHHISNAIPVPKRQSSTFGGADGGFSAGIPSPDKVHRKRASSENERLQYKTPPPSYNSALTQPGVAMPTSGDSERKVAPLSSSLDTSLDFSKENKKAGVDLGSSVSGDHGNSDSGQEQGEALPGHLAAVNGTALPSEQAGPAGTLLPGSCHPAPSAELCCAVEQAEEIIGLEATGFTSGDQLEALSCIPVDSAVAVECDEQVLGEFEEFSRRIYALSENVSSFRRPRRSSDK
EGFR remaining after 5 hours in A549 cells (endogenous Beclin1): < 10% | half-life of EGFR in A549 cells (endogenous Beclin1): ~2 h

B2: FLAG-tagged full length Mus musculus UVRAG 1E (L246E) (other, not shown: small tags and cut ends)
chain: MSSCASLGGPVPLPPPGPSAALTSGAPARALHVELPSQQRRLRHLRNIAARNIVNRNGHQLLDTYFTLHLCDNEKIFKEFYRSEVIKNSLNPTWRSLDFGIMPDRLDTSVSCFVVKIWGGKEEAFQLLIEWKVYLDGLKYLGQQIHARNQNEIIFGLNDGYYGAPCEHKGHPNAQKNLLQVDQNCVRNSYDVFSLLRLHRAQCAIKQTQVTVQRLGKEIEEKLRLTSTSNELKKESECLRLKILVERNELERQKKALGREVAFLHKQQMALQDKGSAFSTEHGKLQLQKDSLSELRKECTAKRELFLKTNAQLTIRCRQLLSELSYIYPIDLNEHKDYFVCGVKLPNSEDFQAKEDGSIAVALGYTAHLVSMISFFLQVPLRYPIIHKGSRSTIKDNINDKLTEKEREFPLYPKGGEKLQFDYGVYLLNKNIAQLRYQHGLGTPDLRQTLPNLKNFMEHGLMVRCDRHHISNAIPVPKRQSSTFGGADGGFSAGIPSPDKVHRKRASSENERLQYKTPPPSYNSALTQPGVAMPTSGDSERKVAPLSSSLDTSLDFSKENKKAGVDLGSSVSGDHGNSDSGQEQGEALPGHLAAVNGTALPSEQAGPAGTLLPGSCHPAPSAELCCAVEQAEEIIGLEATGFTSGDQLEALSCIPVDSAVAVECDEQVLGEFEEFSRRIYALSENVSSFRRPRRSSDK
EGFR remaining after 5 hours in A549 cells (endogenous Beclin1): < 10% | half-life of EGFR in A549 cells (endogenous Beclin1): ~2 h

B3: FLAG-tagged full length Mus musculus UVRAG 2E (L246E/L250E) (other, not shown: small tags and cut ends)
chain: MSSCASLGGPVPLPPPGPSAALTSGAPARALHVELPSQQRRLRHLRNIAARNIVNRNGHQLLDTYFTLHLCDNEKIFKEFYRSEVIKNSLNPTWRSLDFGIMPDRLDTSVSCFVVKIWGGKEEAFQLLIEWKVYLDGLKYLGQQIHARNQNEIIFGLNDGYYGAPCEHKGHPNAQKNLLQVDQNCVRNSYDVFSLLRLHRAQCAIKQTQVTVQRLGKEIEEKLRLTSTSNELKKESECLRLKILVERNEEERQKKALGREVAFLHKQQMALQDKGSAFSTEHGKLQLQKDSLSELRKECTAKRELFLKTNAQLTIRCRQLLSELSYIYPIDLNEHKDYFVCGVKLPNSEDFQAKEDGSIAVALGYTAHLVSMISFFLQVPLRYPIIHKGSRSTIKDNINDKLTEKEREFPLYPKGGEKLQFDYGVYLLNKNIAQLRYQHGLGTPDLRQTLPNLKNFMEHGLMVRCDRHHISNAIPVPKRQSSTFGGADGGFSAGIPSPDKVHRKRASSENERLQYKTPPPSYNSALTQPGVAMPTSGDSERKVAPLSSSLDTSLDFSKENKKAGVDLGSSVSGDHGNSDSGQEQGEALPGHLAAVNGTALPSEQAGPAGTLLPGSCHPAPSAELCCAVEQAEEIIGLEATGFTSGDQLEALSCIPVDSAVAVECDEQVLGEFEEFSRRIYALSENVSSFRRPRRSSDK
EGFR remaining after 5 hours in A549 cells (endogenous Beclin1): ~5%

B4: Beclin 1 coiled coil 1 (CC1), residues 174-223 (other)
chain: DSEQAQRELKELALEEERLIQELEDVEKNRKVVAENLEKVQAEAERLDQE
modifications: not fully specified
Kd [1]: 8.9 µM

B5: Beclin 1 coiled coil 2 (CC2) (other)
chain: EERLIQELEDVEKNRKVVAENLEKVQAEAERLDQEEAQYQREYSEFKRQ
notes: 7 heptad repeats of the Beclin1 coiled coil domain
Kd [1]: 139 µM

B6: Beclin 1 coiled coil 3 (CC3) (other)
chain: RKVVAENLEKVQAEAERLDQEEAQYQREYSEFKRQQLELDDELKSVENQ
notes: as for B5
Kd [1]: 671 µM

B7: Beclin 1 coiled coil 4 (CC4) (other)
chain: AERLDQEEAQYQREYSEFKRQQLELDDELKSVENQMRYAQMQADKLKKTN
notes: as for B5
Kd [1]: 157 µM

B8
Kd [2]: ~0.24 µM

B9
Kd (UVRAG (228-298)): ~0.07 µM

B10
binding result [3]: binds | Kd [4]: ~0.24 µM

B11: UVRAG 2E (L246E/L250E), coiled coil domain as used in ITC (other)
chain: TSNELKKESECLRLKILVERNEEERQKKALGREVAFLHKQQMALQDKGSAFSTEHGKLQLQKDSLSELRKE
binding result [5]: no binding

B12: UVRAG 5E (L232E/L239E/L246E/L250E/L264E), coiled coil domain as used in ITC (other)
chain: TSNEEKKESECERLKILVERNEEERQKKALGREVAFEHKQQMALQDKGSAFSTEHGKLQLQKDSLSELRKE
binding result [5]: no binding

B13: UVRAG 6E (L232E/L239E/L246E/L250E/L264E/L271E), coiled coil domain as used in ITC (other)
chain: TSNEEKKESECERLKILVERNEEERQKKALGREVAFEHKQQMAEQDKGSAFSTEHGKLQLQKDSLSELRKE
binding result [5]: no binding
